In patent publication US8133978:

Molecular target: Human interleukin-18 (recombinant human IL-18) (human) (UniProt Q14116)
Experiment: cell-based or functional assay

Chain of IL-18 bp (IL-18 binding protein as used in the bioassays) (O95998 31-194 limits assumed): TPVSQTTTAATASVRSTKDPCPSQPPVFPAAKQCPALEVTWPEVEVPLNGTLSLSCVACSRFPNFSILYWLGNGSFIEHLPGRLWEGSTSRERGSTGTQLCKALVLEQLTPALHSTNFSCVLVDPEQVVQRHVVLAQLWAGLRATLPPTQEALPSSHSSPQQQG
Chain of Human interleukin-18 (recombinant human IL-18) (human) (Q14116 37-193 limits assumed): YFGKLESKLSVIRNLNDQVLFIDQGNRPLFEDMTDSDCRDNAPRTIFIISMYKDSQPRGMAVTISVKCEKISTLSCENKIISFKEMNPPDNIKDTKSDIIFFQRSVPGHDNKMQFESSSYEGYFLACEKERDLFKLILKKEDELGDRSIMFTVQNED

With “IL-18 bp (IL-18 binding protein as used in the bioassays) (from UniProt O95998 31-194)” the IC50, LPS-stimulated IFNγ release, human PBMC, Donor 1 10% serum was 0.024, the IC50, LPS-stimulated IFNγ release, human PBMC, Donor 1 25% serum was 0.064 and the IC50, LPS-stimulated IFNγ release, human PBMC, Donor 3 10% serum was 0.032. The IC50, LPS-stimulated IFNγ release, human PBMC, Donor 3 25% serum was 0.046 and the complete inhibition of IL-18 mediated IFNγ release, LPS-stimulated human PBMC, 10% or 25% human serum was greater than 1 µg/mL.
